Assays:
[1] = target: T1, human IL-18 Binding Protein (IL-18BP) (Homo sapiens, UniProt O95998); experiment: IL-18 Binding Protein alphaLISA assay (Example 12); conditions: human IL-18BP
T1 sequence (O95998 31-194): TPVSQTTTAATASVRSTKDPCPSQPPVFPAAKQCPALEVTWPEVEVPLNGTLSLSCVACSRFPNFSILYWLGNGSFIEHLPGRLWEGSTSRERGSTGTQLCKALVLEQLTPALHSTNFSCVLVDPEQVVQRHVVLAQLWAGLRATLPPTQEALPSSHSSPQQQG
Procedure: Wild type or modified IL-18 polypeptides samples were diluted at 5.6 μM in a solution of 1× alphaLISA Immunoassay Buffer provided in the alphaLISA IFNγ Detection kit and were diluted applying 3-fold serial dilutions down to […] in 384 deep well plates. A solution of 10 ng/ml of human IL-18BP-His was prepared with 1×alphaLISA Immunoassay Buffer. IL-18/IL-18BP complex formation was performed incubating 30 μl of IL-18BP solution to IL-18 sample titrations for 1 h at 20° C. IL-18BP standard was prediluted from stock solution supplied in alphaLISA IFNγ Detection kit at 100 ng/ml with 1×alphaLISA Buffer and titration prepared from applying 2-fold serial dilutions. The following solutions were prepared: a 50 μg/ml solution of anti-IL-18BP alphaLISA Acceptor beads, a 5 nM solution of biotinylated anti-IL18BP antibody and a 80 μg/ml light-protected solution of Streptavidin Donor beads in 1×alphaLISA Immunoassay Buffer. […]
5 μl of Biotinylated anti-IL-18BP antibody were added, followed by a short centrifugation step at 150 g, and incubated for 60 minutes at 20° C. under shaking at 750 rpm. […] AlphaLisa signal was then measured on an Enspire plate reader (Perkin Elmer) using 680 and 615 nm as excitation and emission wavelengths respectively. […]

NK92 cells = experiment: Cellular IL-18 Binding Protein resistance assay in NK92 cells (Example 13); assay type: cell-based, human; conditions: IL-18BP-mediated inhibition of IFNγ secretion, IL-18 analyte 1 nM
Procedure: The NK cell line NK-92 derived from a patient with lymphoma (ATCC, Cat #CR^L-2407) was cultured in αMEM medium supplemented with 20% FCS-Glutamax, 25 μM B-mercaptoethanol, and 100 IU/ml of recombinant Human Interleukin-2 (IL-2). On the day of experiment, cells were harvested and washed with αMEM medium without IL-2. After counting, cells were seeded at 100 000 cells/well in a 384 well titer plate and incubated at 37° C./5% CO2. Sixteen 2-fold serial dilutions of Fc fused human IL-18 binding protein isoform a (IL-18BPa; R&D systems, Cat #119-BP) were prepared in αMEM medium—1 ng/ml IL-12 containing 2 nM of each IL-18 variants and were added to the NK-92 cells. Final IL-18 analytes concentration was 1 nM and final IL-18BPa concentrations ranged from to 566 nM down to 17 pM.
(§1) After 16-20 h incubation at 37° C./5% CO2, 5 μl of supernatant were carefully transferred to a 384 microwells OPTIplate (Perkin Elmer; Cat #6007270) and Interferon-gamma (IFNγ) levels measured using the Human IFNγ AlphaLISA Assay Kit (Perkin Elmer, Cat #AL217C). […] AlphaLisa signal was then measured on an Enspire plate reader (Perkin Elmer) using 680 and 615 nm as excitation and emission wavelengths respectively. Half maximal inhibitory concentration (IC50) was calculated based on a variable slope, four parameter analysis using GraphPad PRISM software.

[2] = system: parental PD-1negative NK-92 cells; experiment: IFN gamma secretion assay in parental PD-1 negative NK-92 cells (Example 17); assay type: cell-based, human; conditions: IFNγ secretion
Procedure: (§2) To show selectivity of the anti-PD1-IL18 immunocytokine (IC) for PD-1 positive cells, the NK-92 cell line was used to generate a PD-1 expressing cell line and furthermore, to measure IFN[…] release upon incubation with IL-18 variants and ICs.
(§3) On the day of experiment, parental PD-1negative and PD-1positive transduced cells were harvested and washed with PBS 1× and resuspended in medium (w/o IL-2) containing 1 ng/ml of recombinant human Interleukin-12 (SinoBiologicals, Cat #CT011-H08H). After counting, cells were seeded at 100 000 cells/well in a 384 well culture plate and incubated at 37° C./5% CO2. When indicated, cells were preincubated with anti-PD-1 antibody LZM-009 at 17 uM during 30 min at 37° C. […] The lowest concentration assessed was 0.8 fM.
as §1, with “microwell OptiPlate” for “microwells OPTIplate”, “levels were” for “levels”, “AlphaLISA” for “AlphaLisa”, “effective” for “inhibitory”, “(EC50)” for “(IC50)”

[3] = system: PD-1positive transduced NK-92 cells; experiment: IFN gamma secretion assay in PD-1 positive transduced NK-92 cells (Example 17); assay type: cell-based, human
Procedure: as §2, §3
as §1, with “microwell OptiPlate” for “microwells OPTIplate”, “levels were” for “levels”, “AlphaLISA” for “AlphaLisa”, “effective” for “inhibitory”, “(EC50)” for “(IC50)”

Kd [1]: 24.6 nM
IC50 (NK92 cells): 488 nM
EC50 ([3]; IFNγ secretion): 0.0028 nM
PD-1^neg/PD-1^pos EC50 ratio ([3]; NK-92 cells): 0.9
B1: SEQ ID NO: 30: IL-18 polypeptide: E6K, V11I, C38A, K53A, T63A, C76A, C127A (protein)
chain: YFGKLKSKLSIIRNLNDQVLFIDQGNRPLFEDMTDSDARDNAPRTIFIISMYADSQPRGMAVAISVKCEKISTLSAENKIISFKEMNPPDNIKDTKSDIIFFQRSVPGHDNKMQFESSSYEGYFLAAEKERDLFKLILKKEDELGDRSIMFTVQNED
EC50 [2]: 0.0024 nM
